Reference: patent EP4541814A1 (Cytiva BioProcess R&D AB, dated 2025)

B1: Candidate 4A-2: vh343 fusion protein (SEQ ID NO:164) (VHH)
VHH: EVQLVESGGGLVQAGGSLRLSCAASGRTLSDYTMGWFRQAPGKEREFVVAISWSGAYTKYADSVKGRFTISRDNAKNTMYLQMNSLKPEDTAVYYCAAGPTGLLSKKATPADYDYWGQGTQVTVSS
B2: Candidate 4A-3: vh118 fusion protein (SEQ ID NO:162) (VHH)
VHH: QVQLQQSGGGSVQAGGSLRLSCTISGRTLSDYTMGWFRQRPGKEREFVAAISWSGAYTKYADSVKGRFTISRDNAKNTVYLQMNSLKPEDTAVYYCAAGPTGLLSKKATPADYDYWGQGTQVTVSS

Molecular target: AAV9 viral particles (adeno-associated virus 9)
Assay: SPR (Biacore 8K+), fusion protein amine-coupled to CM5, AAV9 2E12 vp/ml, report point late binding

Binder	Binding capacity AAV9 (2E12 vp/ml) (RU)
B1	12400 RU
B2	12400 RU
